± gives the uncertainty stated by the source.

A short description of the data set: amyloid nucleation score (Sup35N fusion, yeast selection) (log enrichment); library NNK3; higher = more nucleation; inactive = no reads after selection. Put shortly: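 The nucleation score is a DiMSum log enrichment of output over input reads, centred on the mode score of non-aggregating sequences. Sequences under 100 input reads were excluded, and reads came from Illumina sequencing of plasmid inserts. Psi-negative yeast expressing Sup35N fused to peptides of 20 random codons were induced with 100 μM copper sulfate for 24 hours and grown 7 days at 30°C on medium lacking adenine and uracil. Random libraries had three technical output replicates.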
As to IAFTNLVKVCGLTGYA, the amyloid nucleation score result was “inactive”.
Next, GITVMSLTG: “inactive”.
RHLLLTGKSWCVQACPGRTV showed an amyloid nucleation score of -0.965 ± 1.1.
Next, CVNTHRY: “inactive”; PSLQRSQRVSEFRTM: “inactive”.
On to GILSKIDVSWWRMAVSVKCW, for which the amyloid nucleation score entry is “inactive”.
Next, TVCLVAITKAPRRCNSQHWD: -0.917 ± 1.9; TCFFISSIFSFDKHVIVCCA: 0.536 ± 0.32; SCIIWKSWQV: 1.14 ± 0.095.
Next, GWNSFPRPLYPRWDNSESAS: “inactive”.
With EVNWSIIRGWVEISYTVPEL, the amyloid nucleation score result is “inactive”.
Next, KGFTDWFWCFTPVVEWKSIT: “inactive”.
Under LGDNLEGNIGLLL stands “inactive”; under AKAEC, “inactive”; under HTVVPNRVNSPCVWWLFFVW, 1.3 ± 0.11.
Under RIMWSRRVENVL stands “inactive”; under SYRYFGGSDYRLCGGIWMLA, “inactive”; under FDGKMVYFSAEFSFDKFLDR, 1.74 ± 0.11.
Turning to DRVCSSRML, the amyloid nucleation score entry was “inactive”.
Next, FLIKSFWNMIVCEAGDCCKD: 1.75 ± 0.12; TKSPSGTHFLLVRFWSRCGR: “inactive”; MVKTFVLMTLHLGLMVRFLF: “inactive”.
Consider NLVSNMVSNAKVDVVVWHVQ, for which the amyloid nucleation score stood at 0.209 ± 0.54.
Under FNCLHIYWMM stands 0.372 ± 0.42.
Under FSVFPLFVTGFQDILWVDLL stands “inactive”; under SLNMSN, “inactive”; under EMSWRSVKSSHYKQMEFSGR, “inactive”.
GLIVCVVASSYLMSGFGVKG returned an amyloid nucleation score of 0.03 ± 0.22.
Under RYVTCNLEINTWDRVRGWHV stands 1.16 ± 0.16.
Under GGFRISHSIC stands “inactive”; under VLVGDDCDRTVANVQ, “inactive”.
Under VGHERTVSLQHCGRRLRWCW stands “inactive”; under TLWLRVLSFWTVCFLVHFTM, “inactive”.
On to FPSKCCANKSSYLGWTSLCW, for which the amyloid nucleation score entry is “inactive”.
Next, YTIVLLYERFQLAPTTMWMC: “inactive”; VLYVIRNYSGDG: 1.62 ± 0.096.
On to GYYFWQWLRIIL, for which the amyloid nucleation score entry is “inactive”.
Under QQFVTFVIFKYTVSVAMGAG stands -0.478 ± 0.88; under GYDQKLES, “inactive”.
Under LIWYRNDEWYSFLWMVYCSS stands “inactive”.
Under AYIDNRSYVCDALKCLW stands 2.92 ± 0.055.
For the substance HWTNHYNYCGRA, the amyloid nucleation score is 1.19 ± 0.082.
Next, GASNMFHDPELSG: “inactive”.
Next, DCFFRSVDLADSR: “inactive”; RFLLYPAPWRVFAIPYSEHL: “inactive”; VIIIEWV: “inactive”.
Consider TEGLKIFDDET, for which the amyloid nucleation score entry is “inactive”.
Next, TLNVFVNN: 2.26 ± 0.056; IAAIGLELYWFFIVSIWGY: “inactive”.
Next, LKNHNLVTKHYYARLMIGLW: “inactive”; VVTHLALSKRSSAVTIFAWG: “inactive”; QGNAVHRDASSGWMNSAFDR: “inactive”.
KEVTSLVLIVFT returned an amyloid nucleation score of 0.58 ± 0.17.
Under PSTDSINDV stands “inactive”; under LRRRVKSFSELYLAVTRVML, 0.286 ± 0.43; under IISVIVTVYR, “inactive”.
Next, VFGET: “inactive”.
Under HLPRKLVRPRRF stands -0.415 ± 1.2; under CLTGRLLKSSVIRWRKYMNV, “inactive”; under YFHGFLFYSE, “inactive”.
Take IESKLDAYTLCVGSSNWLWM: the amyloid nucleation score entry was “inactive”.
Next, KSVKARYSDSSMW: “inactive”.
For the substance FNQQLSECVDVARELAGG, the amyloid nucleation score amounted to 1.99 ± 0.086.
Under LSALHSVYLINAISFGFNQT stands 1.09 ± 0.13; under TLCNFKCVYTGSLKIFHRYM, 1.91 ± 0.094; under LFHNCHGFFHTNNVPFVRWP, “inactive”.
With IRCMRGTTRHVSGLKRVERN, the amyloid nucleation score result is “inactive”.
Under TSWCNSKPCEILYVGSMAKE stands “inactive”; under CCARGGRVCRQLGLVSYTNV, “inactive”.
Next, GLTTSYQPYILYIL: “inactive”; FIPGMQA: “inactive”; MLEYRVTARDGVLWEMGFGY: “inactive”.
Next, GDILGHRRHSVVRSRRQSLT: “inactive”.
On to GGEGHSEVRRKTPGITCACI, for which the amyloid nucleation score entry is “inactive”.
With DYYSCFISYRLIRYWICGEA, the amyloid nucleation score result is “inactive”.
Next, SIAIRVRAIIGKSRGKCPNG: 1.81 ± 0.092; LVGYRAQLHGVNYSMFVGIS: “inactive”; QSASFRNGFKLLLMTS: “inactive”.
Next, VRISHYA: “inactive”; NHGNSDEKTFPTMEN: “inactive”; TKGFDVPT: “inactive”.
Consider VWPNGSKKYGLSRMTANSLL, for which the amyloid nucleation score entry is “inactive”.
Next, LLISGCRSFMMAFSGCL: “inactive”; YNTRGQSSFSPCEIMWLVHI: “inactive”.
Next, RDGSQGEFWVLALARLGGTS: 0.311 ± 0.48; TVFSDFSGSKEMTVTIRRWV: “inactive”.
Under WMDNAI stands “inactive”; under SLRPGLVLVIERNEFKS, “inactive”; under VSVRVDLILKVVRRSSVWFT, “inactive”.
Consider LYFSFIFNLSIQGDAEFVSN, for which the amyloid nucleation score is 2.49 ± 0.051.
Consider PVRSPAACGDRLSVRVANME, for which the amyloid nucleation score entry was “inactive”.
Next, YVVNFVLL: 2.43 ± 0.085; LDLFSRNSETRAKSDRVWWT: “inactive”; LVKLKL: “inactive”.
For the substance RCFIDLCFLDIIISFRYY, the amyloid nucleation score entry is “inactive”.
Next, ANLIIVSVHFPRITTCYNNP: 1.95 ± 0.068.
Under IFIYGPLPPVRCYHYDWWNL stands “inactive”.
With WRRLRATISNGAWD, the amyloid nucleation score result was “inactive”.

The record behind these values is the supplement of paper PMC12042874.
